Test results published in US20160347802A1.

Columns and labels:
[1] = target: biotinylated recombinant human DCC (human) (UniProt P43146); test: AVEXIS, prey on bait DCC; white = No binding
[2] = target: biotinylated recombinant human UNC5B (human) (UniProt Q8IZJ1); test: AVEXIS, prey on bait UNC5B; white = No binding
[3] = target: zebrafish Netrin1a, AVEXIS bait or prey protein (zebrafish); test: AVEXIS, prey on bait zNetrin1a, lower value; grey = Weak binding
[4] = target: zebrafish Netrin1a, AVEXIS bait or prey protein (zebrafish); test: AVEXIS, prey on bait zNetrin1a, upper value; grey = Weak binding
[5] = target: human DRAXIN 21 amino acid Netrin binding fragment, AVEXIS prey or bait protein (human); test: AVEXIS, prey on bait DRAXIN 21aa; white = No binding
human DRAXIN 21 amino acid Netrin binding fragment, AVEXIS prey or bait protein (human), sequence (peptide, as listed by the source): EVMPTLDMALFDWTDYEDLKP

[6] = target: human Netrin1, recombinant AVEXIS protein (biotinylated when immobilised) (human) (UniProt O95631); test: AVEXIS, prey on bait NTN1; dark = Binding
[7] = target: Matn4 ECD, mono-biotinylated bait protein (positive control); test: AVEXIS, prey on bait Matn4 (+), positive control for the prey; dark = Binding
[8] = target: human DRAXIN, AVEXIS prey or bait protein (human) (UniProt Q8NBI3); test: AVEXIS, prey on bait DRAXIN; white = No binding
human DRAXIN, AVEXIS prey or bait protein (human), sequence (Q8NBI3 26-349): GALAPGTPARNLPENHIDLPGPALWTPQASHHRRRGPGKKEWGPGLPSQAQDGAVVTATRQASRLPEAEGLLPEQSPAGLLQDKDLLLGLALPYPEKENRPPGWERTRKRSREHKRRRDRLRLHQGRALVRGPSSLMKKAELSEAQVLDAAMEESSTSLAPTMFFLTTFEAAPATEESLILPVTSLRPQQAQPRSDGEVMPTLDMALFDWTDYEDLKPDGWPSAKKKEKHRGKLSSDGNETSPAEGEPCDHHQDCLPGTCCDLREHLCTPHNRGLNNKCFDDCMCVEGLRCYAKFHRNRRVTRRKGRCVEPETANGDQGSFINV

[9] = target: human Netrin-3, AVEXIS protein (human) (UniProt O00634); test: AVEXIS, prey on bait NTN3; white = No binding
human Netrin-3, AVEXIS protein (human), sequence (O00634 28-580): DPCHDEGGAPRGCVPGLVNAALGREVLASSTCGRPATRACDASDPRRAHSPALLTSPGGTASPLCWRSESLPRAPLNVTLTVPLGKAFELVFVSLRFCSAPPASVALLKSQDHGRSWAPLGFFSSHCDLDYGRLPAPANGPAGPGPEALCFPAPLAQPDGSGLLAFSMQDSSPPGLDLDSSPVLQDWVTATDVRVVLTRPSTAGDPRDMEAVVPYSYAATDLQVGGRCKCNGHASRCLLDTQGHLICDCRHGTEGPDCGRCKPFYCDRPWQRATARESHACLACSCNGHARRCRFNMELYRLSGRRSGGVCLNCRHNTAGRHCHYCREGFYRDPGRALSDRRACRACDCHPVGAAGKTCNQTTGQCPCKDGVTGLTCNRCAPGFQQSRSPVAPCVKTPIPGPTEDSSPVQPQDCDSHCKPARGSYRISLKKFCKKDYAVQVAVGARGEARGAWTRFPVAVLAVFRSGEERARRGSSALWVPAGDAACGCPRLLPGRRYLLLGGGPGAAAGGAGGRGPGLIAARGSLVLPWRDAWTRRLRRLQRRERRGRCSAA

[10] = target: human Netrin-G2, AVEXIS protein (human) (UniProt Q96CW9); test: AVEXIS, prey on bait NTNG2; white = No binding
human Netrin-G2, AVEXIS protein (human), sequence (Q96CW9 18-507): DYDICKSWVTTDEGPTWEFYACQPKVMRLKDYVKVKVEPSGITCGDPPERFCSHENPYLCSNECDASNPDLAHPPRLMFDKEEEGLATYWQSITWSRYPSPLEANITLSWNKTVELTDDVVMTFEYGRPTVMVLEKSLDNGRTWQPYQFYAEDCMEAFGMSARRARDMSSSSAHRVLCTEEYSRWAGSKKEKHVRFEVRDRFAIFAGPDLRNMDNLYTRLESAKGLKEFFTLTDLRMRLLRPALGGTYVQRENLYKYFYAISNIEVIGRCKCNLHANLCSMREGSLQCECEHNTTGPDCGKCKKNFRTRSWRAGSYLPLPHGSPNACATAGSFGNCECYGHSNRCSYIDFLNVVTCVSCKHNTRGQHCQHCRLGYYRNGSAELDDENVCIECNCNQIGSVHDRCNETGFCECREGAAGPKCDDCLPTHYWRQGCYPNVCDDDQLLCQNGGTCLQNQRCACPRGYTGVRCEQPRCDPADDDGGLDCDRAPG

[11] = target: human Netrin-G1, AVEXIS protein (human) (UniProt Q9Y2I2); test: AVEXIS, prey on bait NTNG1; white = No binding
human Netrin-G1, AVEXIS protein (human), sequence (Q9Y2I2 29-510): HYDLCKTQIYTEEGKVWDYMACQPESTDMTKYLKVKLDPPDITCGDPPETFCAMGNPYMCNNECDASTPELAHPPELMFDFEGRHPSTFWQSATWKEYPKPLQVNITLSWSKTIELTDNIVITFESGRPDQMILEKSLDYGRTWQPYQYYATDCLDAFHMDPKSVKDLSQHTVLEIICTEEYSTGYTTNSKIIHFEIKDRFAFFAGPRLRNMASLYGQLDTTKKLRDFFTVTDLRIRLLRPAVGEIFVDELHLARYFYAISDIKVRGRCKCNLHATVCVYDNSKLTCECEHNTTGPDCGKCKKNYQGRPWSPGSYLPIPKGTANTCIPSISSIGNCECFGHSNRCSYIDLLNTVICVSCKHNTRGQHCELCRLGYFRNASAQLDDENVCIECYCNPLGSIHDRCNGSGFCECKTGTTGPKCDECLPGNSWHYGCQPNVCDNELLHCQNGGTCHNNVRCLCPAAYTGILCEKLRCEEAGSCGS

[12] = target: human Netrin-4, AVEXIS protein (human) (UniProt Q9HB63); test: AVEXIS, prey on bait NTN4; white = No binding
human Netrin-4, AVEXIS protein (human), sequence (Q9HB63 19-628): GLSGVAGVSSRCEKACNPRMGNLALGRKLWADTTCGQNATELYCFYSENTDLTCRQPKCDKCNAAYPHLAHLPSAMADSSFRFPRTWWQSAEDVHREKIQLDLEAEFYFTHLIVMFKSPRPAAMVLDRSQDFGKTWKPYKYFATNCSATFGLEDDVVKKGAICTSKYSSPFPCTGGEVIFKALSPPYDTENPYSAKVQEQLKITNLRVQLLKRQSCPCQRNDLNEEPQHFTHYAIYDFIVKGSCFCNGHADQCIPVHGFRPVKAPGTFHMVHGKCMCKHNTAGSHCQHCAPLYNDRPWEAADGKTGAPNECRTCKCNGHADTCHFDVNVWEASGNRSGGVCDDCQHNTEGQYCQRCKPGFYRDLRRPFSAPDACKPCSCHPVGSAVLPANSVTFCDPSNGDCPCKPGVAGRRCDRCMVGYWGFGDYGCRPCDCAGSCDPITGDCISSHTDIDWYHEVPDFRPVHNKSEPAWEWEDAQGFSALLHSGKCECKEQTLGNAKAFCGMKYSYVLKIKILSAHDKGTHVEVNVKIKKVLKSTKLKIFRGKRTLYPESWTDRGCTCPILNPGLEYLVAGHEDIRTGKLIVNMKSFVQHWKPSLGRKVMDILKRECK

[13] = target: human Netrin1, recombinant AVEXIS protein (biotinylated when immobilised) (human) (UniProt O95631); test: AVEXIS, prey on bait hNETRIN1, upper value; white = No binding
[14] = target: zebrafish Netrin1a, AVEXIS bait or prey protein (zebrafish); test: AVEXIS, prey on bait zNetrin1a, lower value; white = No binding
[15] = target: zebrafish DraxinB, AVEXIS protein (zebrafish); test: AVEXIS, prey on bait zDraxinB, upper value; black = Binding
[16] = target: human Netrin1, recombinant AVEXIS protein (biotinylated when immobilised) (human) (UniProt O95631); test: AVEXIS, prey on bait hNETRIN1, lower value; white = No binding
[17] = target: zebrafish DraxinA, AVEXIS prey or bait protein (zebrafish) (UniProt Q4V9H3); test: AVEXIS, prey on bait zDraxinA, lower value; black = Binding
zebrafish DraxinA, AVEXIS prey or bait protein (zebrafish), sequence (Q4V9H3 other isoform, or with tags, fused parts or gaps): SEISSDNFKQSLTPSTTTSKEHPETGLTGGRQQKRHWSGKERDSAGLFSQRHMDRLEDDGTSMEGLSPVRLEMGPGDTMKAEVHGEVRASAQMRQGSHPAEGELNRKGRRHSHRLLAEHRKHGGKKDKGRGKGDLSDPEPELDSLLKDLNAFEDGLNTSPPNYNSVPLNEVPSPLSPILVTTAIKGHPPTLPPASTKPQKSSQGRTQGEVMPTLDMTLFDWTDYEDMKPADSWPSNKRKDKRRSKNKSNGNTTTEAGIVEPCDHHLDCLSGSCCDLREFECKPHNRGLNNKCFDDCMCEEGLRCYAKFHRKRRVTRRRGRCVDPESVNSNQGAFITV

[18] = target: human DRAXIN, AVEXIS prey or bait protein (human) (UniProt Q8NBI3); test: AVEXIS, prey on bait hDRAXIN, lower value; black = Binding
[19] = target: human DRAXIN, AVEXIS prey or bait protein (human) (UniProt Q8NBI3); test: AVEXIS, prey on bait hDRAXIN, upper value; black = Binding
[20] = target: zebrafish Netrin1a, AVEXIS bait or prey protein (zebrafish); test: AVEXIS, prey on bait zNetrin1a, upper value; white = No binding
[21] = target: zebrafish DraxinA, AVEXIS prey or bait protein (zebrafish) (UniProt Q4V9H3); test: AVEXIS, prey on bait zDraxinA, upper value; black = Binding
[22] = target: zebrafish DraxinB, AVEXIS protein (zebrafish); test: AVEXIS, prey on bait zDraxinB, lower value; black = Binding
Islr2, AVEXIS protein = test: method not stated; the filers' own unpublished determination ('in preparation'), used to calibrate the AVEXIS screen

human Netrin-3, AVEXIS protein, O00634 28-580 (ligand; other documents disagree on this pair), sequence (O00634 28-580): as the sequence (O00634 28-580) above

biotinylated recombinant human UNC5B (from UniProt Q8IZJ1 27-377) (receptor)
A486nm [1]: 0.064

human Netrin-3, AVEXIS protein (from UniProt O00634 28-580) (ligand)
A486nm [1]: 0.067

human Netrin-3, AVEXIS protein, O00634 28-580 (ligand; other documents disagree on this pair)
A486nm [2]: 0.066

zebrafish DraxinB, AVEXIS protein (ligand)
A486nm [3]: 0.084
A486nm [4]: 0.103

biotinylated recombinant human DCC (from UniProt P43146 26-1097) (receptor)
A486nm [5]: 0.062
A486nm [6]: 0.377
A486nm [2]: 0.062
A486nm [7]: 0.278
A486nm [8]: 0.064
A486nm [9]: 0.076
A486nm [10]: 0.061
A486nm [11]: 0.065
A486nm [12]: 0.064
A486nm [1]: 0.065

zebrafish Netrin1a, AVEXIS bait or prey protein (ligand)
A486nm [13]: 0.064
A486nm [14]: 0.063
A486nm [15]: 0.235
A486nm [16]: 0.059
A486nm [17]: 0.276
A486nm [18]: 0.249
A486nm [19]: 0.136
A486nm [20]: 0.064
A486nm [21]: 0.323
A486nm [22]: 0.174

Vasn (Slit-like2), AVEXIS protein
Kd (Islr2, AVEXIS protein): 12 µM
half-life (t½) (Islr2, AVEXIS protein): 0.16 s
